The values that follow come from patent US20240158497A1 (published 2024).

One may read the Kd as the equilibrium constant for the complex coming apart. High values mean a looser complex, low ones a tighter complex. In general, koff refers to the rate constant with which the complex falls apart. Broadly, the kon is the second-order rate constant of association. A higher kon goes with fast association. A word on the t½: it is the time needed for the level to fall by half in the phase considered.

Sequences and labels used below:
T1: extracellular domain of human LEPR, GPI-anchored, on HEK293/hLEPR-GPI cells (human, UniProt P48357 22-839, GPI anchor at the C-terminus ; GPI anchor at the C-terminus, added through the carboxypeptidase M signal peptide. The N-terminal myc-myc tag is not written.)
T1 sequence: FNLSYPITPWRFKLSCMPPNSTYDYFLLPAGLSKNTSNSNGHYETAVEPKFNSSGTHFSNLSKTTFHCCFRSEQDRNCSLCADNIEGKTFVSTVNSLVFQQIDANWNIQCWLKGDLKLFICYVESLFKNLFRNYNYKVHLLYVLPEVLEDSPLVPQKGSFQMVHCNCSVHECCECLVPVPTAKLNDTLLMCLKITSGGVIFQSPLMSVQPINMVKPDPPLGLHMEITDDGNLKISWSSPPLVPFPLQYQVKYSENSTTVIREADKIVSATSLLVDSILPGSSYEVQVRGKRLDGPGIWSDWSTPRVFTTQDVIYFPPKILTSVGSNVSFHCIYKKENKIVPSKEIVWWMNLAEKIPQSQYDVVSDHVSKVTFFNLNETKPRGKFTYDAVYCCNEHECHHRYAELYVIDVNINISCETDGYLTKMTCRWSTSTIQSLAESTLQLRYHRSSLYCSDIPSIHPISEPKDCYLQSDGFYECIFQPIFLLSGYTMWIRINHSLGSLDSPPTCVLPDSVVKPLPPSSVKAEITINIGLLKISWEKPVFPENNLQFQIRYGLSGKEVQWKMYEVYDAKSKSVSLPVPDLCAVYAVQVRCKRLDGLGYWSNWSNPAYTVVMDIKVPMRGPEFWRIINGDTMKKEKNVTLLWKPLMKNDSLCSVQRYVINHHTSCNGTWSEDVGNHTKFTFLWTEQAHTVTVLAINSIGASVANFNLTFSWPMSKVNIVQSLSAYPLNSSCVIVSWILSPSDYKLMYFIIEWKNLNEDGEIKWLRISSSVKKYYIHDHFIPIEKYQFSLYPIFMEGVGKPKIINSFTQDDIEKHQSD

T2: full length human GP130 (L2V natural variant) on HEK293/Stat3-luc/gp130-2X Sort cells (human, UniProt P40189 23-918)
T2 construct: whole, on cells; Stably over-expressed on HEK293 cells, sorted twice for high expression; also called HEK293/gp130 2X Sort
T2 sequence (looked up): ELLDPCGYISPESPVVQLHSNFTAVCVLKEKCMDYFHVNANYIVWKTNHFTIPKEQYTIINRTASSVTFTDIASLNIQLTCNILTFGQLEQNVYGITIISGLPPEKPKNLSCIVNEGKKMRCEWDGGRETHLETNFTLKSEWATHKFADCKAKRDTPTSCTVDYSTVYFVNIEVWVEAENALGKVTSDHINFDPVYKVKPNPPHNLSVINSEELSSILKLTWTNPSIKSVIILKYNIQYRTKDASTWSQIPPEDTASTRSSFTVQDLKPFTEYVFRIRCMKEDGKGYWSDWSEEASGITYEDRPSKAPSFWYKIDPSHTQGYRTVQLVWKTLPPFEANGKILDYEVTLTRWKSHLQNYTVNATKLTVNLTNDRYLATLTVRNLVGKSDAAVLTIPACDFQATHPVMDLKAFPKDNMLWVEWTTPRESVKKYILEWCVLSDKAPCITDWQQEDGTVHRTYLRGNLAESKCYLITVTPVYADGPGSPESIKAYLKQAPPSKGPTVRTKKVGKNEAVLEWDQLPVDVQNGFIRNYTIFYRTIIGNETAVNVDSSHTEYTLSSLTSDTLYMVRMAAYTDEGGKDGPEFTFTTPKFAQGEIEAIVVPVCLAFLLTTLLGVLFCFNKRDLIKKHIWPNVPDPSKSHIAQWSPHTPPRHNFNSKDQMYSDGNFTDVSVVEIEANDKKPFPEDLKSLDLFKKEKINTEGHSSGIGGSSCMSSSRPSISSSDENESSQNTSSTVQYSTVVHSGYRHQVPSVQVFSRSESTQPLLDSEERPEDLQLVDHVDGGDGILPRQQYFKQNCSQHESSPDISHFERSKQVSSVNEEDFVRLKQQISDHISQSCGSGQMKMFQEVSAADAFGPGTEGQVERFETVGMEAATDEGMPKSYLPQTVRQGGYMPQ

B1: MAb16664 (antibody, V domains shown)
VH: QVQLVQSGTEVKKPGSSVKVSCKASGGTFSTYPINWVRQAPGQGLEWMGGIIPIFGTASYAQKFQGRVAITTDESTSTAYMELNSLRSEDTAVYYCARERPNWGSNDYWGQGTLVTVSS
VL: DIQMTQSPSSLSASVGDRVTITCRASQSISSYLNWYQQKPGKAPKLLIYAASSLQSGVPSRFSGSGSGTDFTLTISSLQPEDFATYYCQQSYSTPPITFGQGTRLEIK
B2: MAb16659 (antibody, V domains shown)
VH: QVQLVQSGPEVKKPGSSVKVSCKASGGTIDRNEITWVRQAPGQGLEWMGVIIPILGEAHYERKFQGRLTITMDESTSTAYMELSNLRSEDTAVYYCARERAARGYLDYWGQGTLVTVSS
VL: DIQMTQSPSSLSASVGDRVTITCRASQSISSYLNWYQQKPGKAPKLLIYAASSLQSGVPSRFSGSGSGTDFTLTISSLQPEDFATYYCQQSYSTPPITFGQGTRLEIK
B3: MAb16676 (antibody, V domains shown)
VH: QVQLVQSGAEVMKPGASVKVSCRASGYTFSSYDINWVRQAPGQGLEWMGWISTATGNTNYPQKVQGRVTMTTDTSTNTAYMELRSLRSDDTAVYYCTREGNSKGWLDPWGQGTLVTVSS
VL: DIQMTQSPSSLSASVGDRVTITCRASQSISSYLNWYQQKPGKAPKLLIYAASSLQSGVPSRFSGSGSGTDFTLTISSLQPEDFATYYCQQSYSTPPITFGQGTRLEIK
B4: MAb16665 (antibody, V domains shown)
VH: QVQLVESGGGVVQPGRSLRLACAASGFTFRSYGMHWVRQAPGKGLEWVAVIWYDGSNKYYTDSVKGRFTISRDNSKNTLYLQMNSLRAEDTAMYYCAIDKWATVTTYLFDYWGQGTLVTVSS
VL: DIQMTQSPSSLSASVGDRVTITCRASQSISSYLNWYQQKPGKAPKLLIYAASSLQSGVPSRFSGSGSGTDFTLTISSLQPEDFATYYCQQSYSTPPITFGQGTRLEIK
B5: mAb18445 (antibody, V domains shown)
VH: QVQLQESGPGLVKPSQTLSLTCTVSGGSISSGGDYWSWIRQLPGKGLEWIGYIYYSGSAYYNPSLKSRGTISIDTSKNQFSLKLTSVTAADTAVYFCVKLRFLEWFLGGWFGPWGQGTLVTVSS
VL: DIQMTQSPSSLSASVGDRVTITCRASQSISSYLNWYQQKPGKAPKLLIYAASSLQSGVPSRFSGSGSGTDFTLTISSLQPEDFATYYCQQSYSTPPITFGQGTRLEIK
notes: Conventional anti-LEPR antibody; also called mAB18445 (anti-LEPR mAb)
B6: mAb16683 (antibody, V domains shown)
VH: QVQLVESGGGLVKPGGSLRLSCAASGFTFSDYYMTWIRQTPGKGLDWVSYISSSGTNKYNADSVKGRFTISRDNAKNSLYLQMNSLRAEDTAVYYCVRDPPWGMDVWGQGTTVTVSS
VL: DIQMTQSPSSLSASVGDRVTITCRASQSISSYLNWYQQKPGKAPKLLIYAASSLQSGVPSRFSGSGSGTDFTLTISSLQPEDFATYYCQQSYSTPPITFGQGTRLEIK
notes: Conventional anti-GP130 antibody; also called mAb16683 (anti-GP130 mAb)
B7: mAb18446 (antibody, V domains shown)
VH: EVQLVESGGGLVQPGGSLRLSCAASGFTFSNYGMTWVRQAPGKGLEWVSAITGGGGSTYYSNSVKGRFTISRDNSKNTVYLRMNSVRAEDTAVYYCAKYKWNFVDDWGQGTTVTVSS
VL: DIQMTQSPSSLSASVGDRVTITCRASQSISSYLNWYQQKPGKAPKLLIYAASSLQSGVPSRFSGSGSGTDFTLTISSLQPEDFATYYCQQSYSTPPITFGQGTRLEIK
notes: Conventional anti-LEPR antibody; also called mAB18446 (anti-LEPR mAb)

T6 sequence (P40189 other isoform, or with tags, fused parts or gaps): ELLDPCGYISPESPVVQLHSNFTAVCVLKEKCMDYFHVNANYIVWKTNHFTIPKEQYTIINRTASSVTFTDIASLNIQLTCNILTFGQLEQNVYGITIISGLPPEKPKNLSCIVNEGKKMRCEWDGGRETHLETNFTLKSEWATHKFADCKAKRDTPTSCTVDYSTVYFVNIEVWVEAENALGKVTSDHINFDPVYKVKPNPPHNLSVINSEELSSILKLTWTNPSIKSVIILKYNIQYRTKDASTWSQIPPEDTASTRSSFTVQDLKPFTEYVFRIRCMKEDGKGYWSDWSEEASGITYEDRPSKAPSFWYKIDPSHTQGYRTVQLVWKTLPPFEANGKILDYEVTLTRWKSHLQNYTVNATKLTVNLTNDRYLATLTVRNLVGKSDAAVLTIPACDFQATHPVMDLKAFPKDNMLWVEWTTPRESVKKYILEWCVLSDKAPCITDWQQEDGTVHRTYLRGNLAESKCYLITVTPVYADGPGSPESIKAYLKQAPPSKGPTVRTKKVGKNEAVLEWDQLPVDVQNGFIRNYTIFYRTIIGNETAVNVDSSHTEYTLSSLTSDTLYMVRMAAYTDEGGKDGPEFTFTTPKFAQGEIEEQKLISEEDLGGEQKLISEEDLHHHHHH

The target of one assay is T3, human GP130 delta D1-D3 expressed with a C-terminal myc-myc hexahistidine tag (human, UniProt P40189 329-619).
T3 construct: CHO supernatant, captured on anti-myc microspheres; also called human GP130 delta D1-D3-MMH
T3 sequence (P40189 other isoform, or with tags, fused parts or gaps mutant limits assumed): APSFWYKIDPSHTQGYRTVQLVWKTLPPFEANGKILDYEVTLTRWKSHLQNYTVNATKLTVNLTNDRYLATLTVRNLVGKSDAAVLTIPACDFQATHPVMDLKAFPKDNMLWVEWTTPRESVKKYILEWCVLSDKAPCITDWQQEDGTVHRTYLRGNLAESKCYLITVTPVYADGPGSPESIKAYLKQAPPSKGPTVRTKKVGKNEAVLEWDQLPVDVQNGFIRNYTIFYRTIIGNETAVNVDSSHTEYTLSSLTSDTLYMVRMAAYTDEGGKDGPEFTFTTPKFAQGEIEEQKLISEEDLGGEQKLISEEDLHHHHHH
The assay can be described thus: Luminex, myc-captured antigen. Here is the method: (§1) Aliquots of microspheres with immobilized anti-myc monoclonal antibodies, prepared as described above, were added individually to 1 mL of the each of these protein supernatants and to 500 uL of purified GP130 protein. The microspheres were gently mixed, incubated for two hours at 25° C., washed twice with 1 mL of DBPS, centrifuged to remove the supernatant and finally resuspended in 1 mL of DPBS buffer. Forty eight μL of anti-myc IgG coupled microspheres from individual reactions with full length human GP130 and with each of the human GP130 domain proteins were withdrawn and mixed together in 3.6 mL of PBS+20 mg/mL BSA+0.05% sodium azide (blocking buffer).
(§2) From this mixed pool, 75 μL of microspheres were plated per well on a 96 well filter plate (Millipore, Cat. No: MSBVN1250) and mixed with 25 μL of individual anti-human GP130 monoclonal antibodies (0.5 or 5 μg/mL), incubated for two hours at 25° C. and then washed twice with 200 μL of DPBS with 0.05% Tween 20 (washing buffer). To detect and quantify the amounts of bound anti-GP130 antibody levels to individual microspheres, either 100 μL of 2.5 μg/mL R-Phycoerythrin conjugated goat F(ab′)2 anti-human kappa (Southern Biotech, Cat #2063-09) in blocking buffer, was added and incubated for 30 minutes at 25° C. After 30 minutes, the samples were washed twice with 200 μL of washing buffer and resuspended in 150 μL of wash buffer. The Median Fluorescence intensity (MFI) of the microspheres was measured in a Luminex Analyzer.
On to B1, for which the binding result is “no binding (tested: 0.5 or 5 µg/mL)”.
B2: the binding result is “no binding (tested: 0.5 or 5 µg/mL)”.
With B3, the binding result is reported as “no binding (tested: 0.5 or 5 µg/mL)”.
As to B4, the binding result is recorded as “no binding (tested: 0.5 or 5 µg/mL)”.

In another assay the target is T4, human GP130 delta D1 expressed with a C-terminal myc-myc hexahistidine tag (human, UniProt P40189 124-619).
T4 construct: CHO supernatant, captured on anti-myc microspheres; also called human GP130 delta D1-MMH
T4 sequence (P40189 other isoform, or with tags, fused parts or gaps mutant limits assumed): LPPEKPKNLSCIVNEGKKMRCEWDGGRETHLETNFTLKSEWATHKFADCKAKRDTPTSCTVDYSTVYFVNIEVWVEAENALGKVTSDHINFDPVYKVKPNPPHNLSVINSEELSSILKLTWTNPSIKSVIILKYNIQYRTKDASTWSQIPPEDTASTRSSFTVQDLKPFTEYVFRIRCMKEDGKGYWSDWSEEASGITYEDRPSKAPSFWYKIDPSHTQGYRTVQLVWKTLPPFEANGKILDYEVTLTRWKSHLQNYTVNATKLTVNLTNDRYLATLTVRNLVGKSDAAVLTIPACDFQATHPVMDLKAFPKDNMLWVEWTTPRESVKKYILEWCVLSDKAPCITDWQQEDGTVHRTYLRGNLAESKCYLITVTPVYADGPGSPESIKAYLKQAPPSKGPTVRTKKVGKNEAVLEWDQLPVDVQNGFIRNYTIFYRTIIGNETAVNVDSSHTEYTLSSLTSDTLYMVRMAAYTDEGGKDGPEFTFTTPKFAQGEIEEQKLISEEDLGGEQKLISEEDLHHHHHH
The assay is described as follows: Luminex, myc-captured antigen. As for the experimental part:
as §1, §2
Regarding B1, the binding result is recorded as “no binding (tested: 0.5 or 5 µg/mL)”.
Take B2: the binding result was “no binding (tested: 0.5 or 5 µg/mL)”.
The same measure, in the same setting: for B3 the value was “no binding (tested: 0.5 or 5 µg/mL)”.
Same read-out and setting: for B4 the value was “no binding (tested: 0.5 or 5 µg/mL)”.

Another assay has as its target T1, extracellular domain of human LEPR, …. The assay can be described thus: FACS, 200 nM antibody on HEK293/hLEPR-GPI cells, no Leptin. As for the experimental part:
(§3) For the FACS analysis, 0.5×10^6 cells/well of HEK293 parental cells, HEK293/Stat3-luc/gp130-2 X Sort cells, and HEK293/hLEPR-GPI cells, were incubated with 200 nM of the conventional antibodies against either GP130 or LEPR or with LEPRxGP130 bispecific antibodies, along with isotype control antibodies at 4° C. in PBS (without calcium and magnesium) containing 2% FBS.
(§4) Cells were fixed using BD CytoFix™ (Becton Dickinson, #554655) and analyzed on an IQue® (Intellicyt) Flow Cytometer. Unstained and secondary antibody alone controls were also tested for all cell lines. The results were analyzed using ForeCyt® (IntelliCyt) and FlowJo version 10 softwares to determine the geometric means of fluorescence for viable cells.
A general note: Flow cytometry measures light scatter and fluorescence of single cells or particles in a stream.
B5: the “Binding Ratio, normalized to unstained sample (FL4-A)” value (“Binding Ratio, normalized” below) came to 4710 fold.
For the molecule B6, the “Binding Ratio, normalized” value stood at 21 fold.
Regarding B7, the “Binding Ratio, normalized” value came to 7020 fold.

The target of another assay is T5, mouse GP130 extracellular domain expressed with a C-terminal myc-myc-hexahistidine tag (mouse, UniProt Q00560 23-617).
T5 construct: monomeric; also called mGP130-mmH; mGP130-MMH
T5 sequence (Q00560 other isoform, or with tags, fused parts or gaps): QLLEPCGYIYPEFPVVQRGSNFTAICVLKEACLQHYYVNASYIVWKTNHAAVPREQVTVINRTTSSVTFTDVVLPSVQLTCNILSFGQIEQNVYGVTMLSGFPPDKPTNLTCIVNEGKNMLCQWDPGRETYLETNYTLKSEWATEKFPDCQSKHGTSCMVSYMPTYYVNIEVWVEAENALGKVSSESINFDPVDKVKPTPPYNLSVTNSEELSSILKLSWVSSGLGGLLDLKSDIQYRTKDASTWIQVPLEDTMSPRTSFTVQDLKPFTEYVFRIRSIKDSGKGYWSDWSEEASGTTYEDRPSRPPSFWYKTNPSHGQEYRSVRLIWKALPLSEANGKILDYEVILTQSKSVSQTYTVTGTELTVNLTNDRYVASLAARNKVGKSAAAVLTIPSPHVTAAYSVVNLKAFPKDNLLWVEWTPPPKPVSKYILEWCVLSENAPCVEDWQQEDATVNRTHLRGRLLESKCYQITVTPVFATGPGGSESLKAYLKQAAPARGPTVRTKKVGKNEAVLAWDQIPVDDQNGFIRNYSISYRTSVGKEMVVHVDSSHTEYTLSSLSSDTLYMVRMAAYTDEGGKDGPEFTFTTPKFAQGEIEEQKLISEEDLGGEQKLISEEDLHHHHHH
The assay can be described thus: SPR. As for the experimental part: (§5) Equilibrium dissociation constant (KD) for different GP130 reagents binding to purified anti-GP130 monoclonal antibodies were determined using a real-time surface plasmon resonance based Biacore 4000 biosensor. All binding studies were performed in 10 mM HEPES, 150 mM NaCl, 3 mM EDTA, and 0.05% v/v Surfactant Tween-20, pH 7.4 (HBS-ET) running buffer at 25° C. and 37° C. The Biacore sensor surface was first derivatized by amine coupling with a monoclonal mouse anti-human Fc antibody (GE, #BR-1008-39) to capture anti-GP130 monoclonal antibodies. […] Reagents tagged with “mmH” are monomeric, whereas reagents tagged with “mFc” are dimeric. Thus, for example, “hGP130-mmH” is also referred to as “monomeric human GP130,” and “hGP130-mFc” is also referred to as “dimeric human GP130.”
(§6) The association rate (k a) and dissociation rate (kd) were determined by fitting the real-time binding sensorgrams to a 1:1 binding model with mass transport limitation using Scrubber 2.0c curve-fitting software. Binding dissociation equilibrium constant (KD) and dissociative half-life (t ½) were calculated from the kinetic rates as: […]
In general terms: Surface plasmon resonance follows binding to a sensor surface in real time, without labels.
In the case of B1, the binding result is recorded as “no binding (tested: 100 nM)”.
For B2, the binding result is reported as “no binding (tested: 100 nM)”.
With B3, the binding result is listed as “no binding (tested: 100 nM)”.
With B4, the binding result is “no binding (tested: 100 nM)”.

The next assay addresses T6, human GP130 extracellular domain expressed with a C-terminal myc-myc-hexahistidine tag (human, UniProt P40189 23-619).
T6 construct: monomeric; also called hGP130-mmH; hGP130-MMH
The assay can be described thus: SPR 25C, mAb captured, hGP130-MMH injected. Here is the method: as §5, §6
For the molecule B1, the “100 nM Ag Bound (RU)” value stood at 14 RU, the Kd stood at 2.35 nM, the koff was found to be 0.00164 s⁻¹ and the kon was 698000 M⁻¹ s⁻¹. This molecule yielded a t½ of 7 min.
B2: the “100 nM Ag Bound (RU)” value was 77 RU, the Kd was found to be 0.663 nM, the koff was determined as 0.000459 s⁻¹ and the kon came to 693000 M⁻¹ s⁻¹. For the same molecule, the t½ was determined as 25 min.
As to B3, the “100 nM Ag Bound (RU)” value was 51 RU, binding was characterised by a dissociation constant (Kd) of 2.19 nM, the koff turned out to be 0.000631 s⁻¹ and the kon was found to be 287000 M⁻¹ s⁻¹. In addition, the t½ was 18 min.
For B4, the “100 nM Ag Bound (RU)” value is 20 RU; the affinity, expressed as Kd, was 411 nM; the koff was found to be 0.0473 s⁻¹; the kon is 115000 M⁻¹ s⁻¹. The same molecule registered a t½ of 0.2 min.

The next assay addresses T1, extracellular domain of human LEPR, …. The assay can be described thus: FACS, 200 nM antibody on HEK293/hLEPR-GPI cells, 1 µM Leptin. As for the experimental part:
as §3, §4
In the case of B5, the “Binding Ratio, normalized” value came to 4250 fold.
Turning to B7, the “Binding Ratio, normalized” value came out at 6390 fold.

The next assay has as its target T2, full length human GP130 (L2V natural …). The assay can be described thus: FACS, 200 nM antibody on HEK293/gp130 2X Sort cells. As for the experimental part: as §3, §4
Consider B6, for which the “Binding Ratio, normalized” value is 235 fold.
